# Measured values as given in patent US7094873 (University of Texas, dated 2006).
# B1: Full-length hCHIP fused to the GAL4 DNA-binding domain (bait, plasmid pAS2-1) (other)
# chain: MKLLSSIEQACDICRLKKLKCSKEKPKCAKCLKNNWECRYSPKTKRSPLTRAHLTEVESRLERLEQLFLLIFPREDLDMILKMDSLQDIKALLTGLFVQDNVNKDAVTDRLASVETDMPLTLRQHRISATSSSEESSNKGQRQLTVSMKGKEEKEGGARLGAGGGSPEKSPSAQELKEQGNRLFVGRKYPEAAACYGRVITRNPLVAVYYTNRALCYLKMQQHEQALADCRRALELDGQSVKAHFFLGQCQLEMESYDEAIANLQRAYSLAKEQRLNFGDDIPSALRIAKKKRWNSIEERRIHQESELHSYLSRLIAAERERELEECQRNHEGDEDDSHVRAQQACIEAKHDKYMADMDELFSQVDEKRKKRDIPDYLCGKISFELMREPCITPSGITYDRKDIEEHLQRVGHFDPVTRSPLTQEQLIPNLAMKEVIDAFISENGWVEDY
# notes: Expressed in yeast strain CG-1945
# B2: Recombinant hCHIP (His-tagged fusion from plasmid pET-hCHIP, expressed in E. coli BL21) (other, not shown: small tags and cut ends)
# chain: MKGKEEKEGGARLGAGGGSPEKSPSAQELKEQGNRLFVGRKYPEAAACYGRVITRNPLVAVYYTNRALCYLKMQQHEQALADCRRALELDGQSVKAHFFLGQCQLEMESYDEAIANLQRAYSLAKEQRLNFGDDIPSALRIAKKKRWNSIEERRIHQESELHSYLSRLIAAERERELEECQRNHEGDEDDSHVRAQQACIEAKHDKYMADMDELFSQVDEKRKKRDIPDYLCGKISFELMREPCITPSGITYDRKDIEEHLQRVGHFDPVTRSPLTQEQLIPNLAMKEVIDAFISENGWVEDY
# B3: GST-hCHIP fusion protein (amino acid residues 1-303) (other)
# chain: MKGKEEKEGGARLGAGGGSPEKSPSAQELKEQGNRLFVGRKYPEAAACYGRVITRNPLVAVYYTNRALCYLKMQQHEQALADCRRALELDGQSVKAHFFLGQCQLEMESYDEAIANLQRAYSLAKEQRLNFGDDIPSALRIAKKKRWNSIEERRIHQESELHSYLSRLIAAERERELEECQRNHEGDEDDSHVRAQQACIEAKHDKYMADMDELFSQVDEKRKKRDIPDYLCGKISFELMREPCITPSGITYDRKDIEEHLQRVGHFDPVTRSPLTQEQLIPNLAMKEVIDAFISENGWVEDY
# notes: also called GST-CHIP; not shown: glutathione S-transferase (GST) encoded by vector pGEX KG
# B4: 35S-labeled, in vitro translated hCHIP (43-kD S-tagged fusion from vector pCITE-4a) (other)
# chain: MKGKEEKEGGARLGAGGGSPEKSPSAQELKEQGNRLFVGRKYPEAAACYGRVITRNPLVAVYYTNRALCYLKMQQHEQALADCRRALELDGQSVKAHFFLGQCQLEMESYDEAIANLQRAYSLAKEQRLNFGDDIPSALRIAKKKRWNSIEERRIHQESELHSYLSRLIAAERERELEECQRNHEGDEDDSHVRAQQACIEAKHDKYMADMDELFSQVDEKRKKRDIPDYLCGKISFELMREPCITPSGITYDRKDIEEHLQRVGHFDPVTRSPLTQEQLIPNLAMKEVIDAFISENGWVEDY
# modifications: 35S-methionine labeled
# notes: Made in rabbit reticulocyte lysate; not shown: S-tag and vector-encoded residues of pCITE-4a
# B5: lamin C (negative control, yeast two-hybrid) (other, UniProt P02545-2 66-230, looked up)
# chain: SEEVVSREVSGIKAAYEAELGDARKTLDSVAKERARLQLELSKVREEFKELKARNTKKEGDLIAAQARLKDLEALLNSKEAALSTALSEKRTLEGELHDLRGQVAKLEAALGEAKKQLQDEMLRRVDAENRLQTMKEELDFQKNIYSEELRETKRRHETRLVEID
# B6: GST-hCHIP fusion protein (amino acid residues 1-197) (other)
# chain: MKGKEEKEGGARLGAGGGSPEKSPSAQELKEQGNRLFVGRKYPEAAACYGRVITRNPLVAVYYTNRALCYLKMQQHEQALADCRRALELDGQSVKAHFFLGQCQLEMESYDEAIANLQRAYSLAKEQRLNFGDDIPSALRIAKKKRWNSIEERRIHQESELHSYLSRLIAAERERELEECQRNHEGDEDDSHVRAQQ
# notes: TPR domains plus the adjacent charged domain; also called GST construct 4; not shown: glutathione S-transferase (GST) encoded by vector pGEX KG
# B7: GST-hCHIP fusion protein (amino acid residues 1-142) (other)
# chain: MKGKEEKEGGARLGAGGGSPEKSPSAQELKEQGNRLFVGRKYPEAAACYGRVITRNPLVAVYYTNRALCYLKMQQHEQALADCRRALELDGQSVKAHFFLGQCQLEMESYDEAIANLQRAYSLAKEQRLNFGDDIPSALRIA
# notes: Contains the three TPR domains; also called GST construct 2; not shown: glutathione S-transferase (GST) encoded by vector pGEX KG
# Key:
# [1] = molecular target: SV40 large T antigen (negative control protein, Clontech) (SV40, UniProt P03070 84-708); experiment: yeast two-hybrid
# Chain of SV40 large T antigen (negative control protein, Clontech) (P03070 84-708 limits assumed): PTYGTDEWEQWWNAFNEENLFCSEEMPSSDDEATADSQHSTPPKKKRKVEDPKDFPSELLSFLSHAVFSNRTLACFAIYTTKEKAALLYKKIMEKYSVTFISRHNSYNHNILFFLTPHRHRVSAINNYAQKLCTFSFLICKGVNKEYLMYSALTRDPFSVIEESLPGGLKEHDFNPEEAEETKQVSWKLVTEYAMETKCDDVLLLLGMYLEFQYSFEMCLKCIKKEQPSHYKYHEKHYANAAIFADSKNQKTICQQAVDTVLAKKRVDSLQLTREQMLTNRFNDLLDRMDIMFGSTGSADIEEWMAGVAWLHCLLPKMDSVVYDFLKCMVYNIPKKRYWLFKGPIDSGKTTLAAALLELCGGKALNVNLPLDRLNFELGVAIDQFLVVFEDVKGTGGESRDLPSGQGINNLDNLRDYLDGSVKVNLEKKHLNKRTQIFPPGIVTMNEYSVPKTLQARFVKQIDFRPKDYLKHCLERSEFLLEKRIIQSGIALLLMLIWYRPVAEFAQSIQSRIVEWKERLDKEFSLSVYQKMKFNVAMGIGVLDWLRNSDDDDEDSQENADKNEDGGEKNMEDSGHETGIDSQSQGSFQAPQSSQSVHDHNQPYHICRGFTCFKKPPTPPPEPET
# Human Hsp70 (Stressgen) [2] = molecular target: T1, Human Hsp70 (Stressgen) (human, UniProt P0DMV8 1-641); experiment: cell-based or functional assay
# T1 sequence (P0DMV8 whole entry): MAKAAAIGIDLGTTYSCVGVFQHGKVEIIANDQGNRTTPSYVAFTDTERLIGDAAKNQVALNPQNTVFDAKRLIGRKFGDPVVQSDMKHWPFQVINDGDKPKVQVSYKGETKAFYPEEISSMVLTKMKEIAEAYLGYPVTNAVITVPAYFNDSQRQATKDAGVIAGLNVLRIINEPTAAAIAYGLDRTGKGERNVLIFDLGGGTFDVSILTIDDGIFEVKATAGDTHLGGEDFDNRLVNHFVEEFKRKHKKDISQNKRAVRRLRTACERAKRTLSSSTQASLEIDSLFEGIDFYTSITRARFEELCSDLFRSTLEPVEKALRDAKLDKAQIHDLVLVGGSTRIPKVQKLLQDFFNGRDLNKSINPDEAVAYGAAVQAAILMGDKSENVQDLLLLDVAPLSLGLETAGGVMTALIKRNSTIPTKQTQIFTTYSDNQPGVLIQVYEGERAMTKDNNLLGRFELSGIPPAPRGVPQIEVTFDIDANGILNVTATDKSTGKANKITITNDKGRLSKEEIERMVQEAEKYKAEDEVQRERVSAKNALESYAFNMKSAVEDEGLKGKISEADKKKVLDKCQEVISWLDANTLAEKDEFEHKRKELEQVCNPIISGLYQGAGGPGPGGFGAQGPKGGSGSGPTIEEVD
# Human Hsp40 (Stressgen) = molecular target: T2, Human Hsp40 (Stressgen) (human, UniProt P25685 1-340); experiment: GST pulldown on glutathione-Sepharose beads, immunoblot
# T2 construct: also called co-chaperone Hsp40
# T2 sequence (P25685 whole entry): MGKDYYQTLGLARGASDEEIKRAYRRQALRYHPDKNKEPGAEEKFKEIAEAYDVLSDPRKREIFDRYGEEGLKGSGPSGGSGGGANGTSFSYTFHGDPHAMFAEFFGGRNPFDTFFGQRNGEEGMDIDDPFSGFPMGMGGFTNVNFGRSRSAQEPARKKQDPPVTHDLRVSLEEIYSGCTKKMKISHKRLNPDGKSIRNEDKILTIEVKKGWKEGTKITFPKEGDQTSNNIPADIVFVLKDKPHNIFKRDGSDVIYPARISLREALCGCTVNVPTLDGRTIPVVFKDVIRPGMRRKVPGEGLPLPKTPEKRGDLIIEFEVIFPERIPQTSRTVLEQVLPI
# Bovine Hsc70 (Stressgen) = molecular target: T3, Bovine Hsc70 (Stressgen) (bovine, UniProt P19120 2-650); experiment: GST-hCHIP fragments, in vitro binding assay, immunoblot
# T3 construct: also called purified Hsc70
# T3 sequence (P19120 2-650 limits assumed): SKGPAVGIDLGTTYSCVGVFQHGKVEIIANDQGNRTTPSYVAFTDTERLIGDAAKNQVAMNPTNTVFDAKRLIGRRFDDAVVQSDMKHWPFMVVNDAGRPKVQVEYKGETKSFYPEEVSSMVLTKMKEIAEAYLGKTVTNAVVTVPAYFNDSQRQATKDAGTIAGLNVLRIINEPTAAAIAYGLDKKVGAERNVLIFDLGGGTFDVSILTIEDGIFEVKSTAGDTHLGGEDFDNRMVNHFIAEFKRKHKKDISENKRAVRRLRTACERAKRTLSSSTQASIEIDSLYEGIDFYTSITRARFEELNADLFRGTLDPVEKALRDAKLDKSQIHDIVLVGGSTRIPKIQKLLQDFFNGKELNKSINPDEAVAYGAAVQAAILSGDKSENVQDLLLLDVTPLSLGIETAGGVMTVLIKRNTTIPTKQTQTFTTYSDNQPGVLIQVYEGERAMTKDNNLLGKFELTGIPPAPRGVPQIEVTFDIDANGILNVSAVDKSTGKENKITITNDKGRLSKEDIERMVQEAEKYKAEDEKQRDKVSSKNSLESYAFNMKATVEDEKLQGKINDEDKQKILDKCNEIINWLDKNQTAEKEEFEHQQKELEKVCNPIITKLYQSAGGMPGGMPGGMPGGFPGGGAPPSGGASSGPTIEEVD
# [3] = molecular target: T4, GST-Hsc70 (amino acid residues 1-540) (UniProt P11142 1-540); experiment: GST-Hsc70 deletion mutants on beads with 35S-labeled hCHIP, autoradiography
# T4 construct: range 1-540; From E. Ungewickell; also called pGEXHsc70 (1-540); not shown: glutathione S-transferase (GST) of a pGEX vector
# T4 sequence (P11142 1-540): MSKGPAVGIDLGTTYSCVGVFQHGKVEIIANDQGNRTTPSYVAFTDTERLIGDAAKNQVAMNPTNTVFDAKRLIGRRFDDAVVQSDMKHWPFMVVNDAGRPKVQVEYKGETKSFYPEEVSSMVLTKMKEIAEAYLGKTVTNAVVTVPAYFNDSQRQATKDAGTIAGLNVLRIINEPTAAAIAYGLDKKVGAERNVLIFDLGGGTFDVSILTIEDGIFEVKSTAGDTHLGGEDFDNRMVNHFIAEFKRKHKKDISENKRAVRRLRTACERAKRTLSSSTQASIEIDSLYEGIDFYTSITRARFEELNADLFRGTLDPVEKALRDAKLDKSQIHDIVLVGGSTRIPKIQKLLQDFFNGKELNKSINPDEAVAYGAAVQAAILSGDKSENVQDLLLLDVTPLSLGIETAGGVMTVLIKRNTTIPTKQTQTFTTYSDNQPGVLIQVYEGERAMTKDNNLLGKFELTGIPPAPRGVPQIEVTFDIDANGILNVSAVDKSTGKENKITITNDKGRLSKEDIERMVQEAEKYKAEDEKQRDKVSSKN
# [4] = molecular target: T5, Fragments of Hsc70 in frame with the GAL4 activation domain (five prey clones, human heart cDNA library in … (human, UniProt P11142 394-646, limits assumed)); experiment: yeast two-hybrid
# T5 construct: domain: carboxyl terminus
# T5 sequence (P11142 394-646 limits assumed): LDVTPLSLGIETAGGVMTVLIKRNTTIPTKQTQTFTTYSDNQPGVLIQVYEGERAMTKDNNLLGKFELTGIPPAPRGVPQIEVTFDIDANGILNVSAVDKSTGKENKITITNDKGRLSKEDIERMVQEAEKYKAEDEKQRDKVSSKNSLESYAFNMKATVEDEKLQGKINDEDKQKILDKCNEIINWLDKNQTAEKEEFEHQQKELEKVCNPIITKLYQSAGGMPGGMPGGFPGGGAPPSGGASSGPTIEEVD
# [5] = molecular target: T6, Fragments of Hsp70 in frame with the GAL4 activation domain (three prey clones, human heart cDNA library in … (human, UniProt P0DMV8 417-641, limits assumed)); experiment: yeast two-hybrid
# T6 construct: domain: carboxyl terminus; Three clones treated as one molecule
# T6 sequence (P0DMV8 417-641 limits assumed): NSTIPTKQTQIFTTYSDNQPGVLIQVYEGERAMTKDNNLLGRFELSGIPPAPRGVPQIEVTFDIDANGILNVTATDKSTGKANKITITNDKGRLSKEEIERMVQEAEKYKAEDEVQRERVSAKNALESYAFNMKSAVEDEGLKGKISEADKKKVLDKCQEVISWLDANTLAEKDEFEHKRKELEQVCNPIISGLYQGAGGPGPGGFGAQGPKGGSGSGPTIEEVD
# Human Hsp70 (Stressgen) [6] = molecular target: T1, Human Hsp70 (Stressgen); experiment: GST-hCHIP fragments, in vitro binding assay, immunoblot
binder,measurement,setting,value
B1,binding result,[1],no binding
B2,luciferase refolding: decrease of the folding activity of Hsp70,Human Hsp70 (Stressgen) [2],65%
same,luciferase refolding: decrease of the folding activity of Hsp70/Hsp40,Human Hsp70 (Stressgen) [2],64%
B3,binding result,Human Hsp40 (Stressgen),no binding
same,binding result,Bovine Hsc70 (Stressgen),binds
B4,binding result,[3],no binding
B5,binding result,[4],no binding
same,binding result,[5],no binding
B6,binding result,Bovine Hsc70 (Stressgen),binds
same,binding result,Human Hsp70 (Stressgen) [6],binds
B7,binding result,Bovine Hsc70 (Stressgen),no binding
same,binding result,Human Hsp70 (Stressgen) [6],no binding
